Test results as given in patent publication US7228238B2, “Algorithmic design of peptides for binding and/or modulation of the functions of receptors and/or other proteins” (Cielo Institute, Inc., priority 2000, dated 2007).
Blank lines part the entries; values can stand above or below the substance they belong to.

Experiments:
[1] = target: T1, human long isoform D2DA receptor (Homo sapiens, UniProt P14416); assay: external acidification rate (EAR) by microphysiometry, response to dopamine, D2DA receptor-transfected mouse LtK cell system; conditions: for MODULATORY EFFECT LtK: significance class of effect on EAR response to dopamine ≈1 μM; for MODULATORY EFFECT LtK / DIRECT EFFECT LtK / influence on dopamine-induced increment in total milli-pH units (EAR response to dopamine) / ρ of one-tailed t-test paired within chamber, peptide influence on EAR response to dopamine: peptide 1 μM; for MODULATORY EFFECT LtK / DIRECT EFFECT LtK: D2DA-transfected LtK cells; for DIRECT EFFECT LtK: significance class of effect on EAR; for influence on dopamine-induced increment in total milli-pH units (EAR response to dopamine) / ρ of one-tailed t-test paired within chamber, peptide influence on EAR response to dopamine: LtK system, dopamine ≈1 μM
Method: (§2) Both cell systems were stably transfected with human long isoform D2DA receptor cDNA, which had been isolated from a human striatal cDNA library, sequenced and subcloned into the expression vector pRC/RSV (Invitrogen). […] Both systems were grown to confluence in DMEM containing 10% FBS. The cells were serum-starved 18–24 hours prior to use, and then assayed for EAR using a microphysiometer (Cytosensor; Molecular Devices, Sunnyvale, Calif.) in low buffering DMEM with 0.1% culture grade BSA.
(§3) The determination of EAR by microphysiometry involves a proton-sensitive silicon semiconductor photocurrent-driven sensor which measures changes in EAR resulting from effector-evoked alterations in cellular glycolytic and respiratory energy metabolism and/or alterations in sodium-hydrogen exchanges across cellular membranes. Protonic H^+, generated by such energy metabolism or exchanges, neutralizes the charge on the surface of the semiconductor, reducing the photocurrent produced at a rate linearly related to H^+production.
(§4) The microphysiometer monitors pH in flow-through chambers containing the receptor-transfected cells. Generally, if the cells lines used are adherent cell lines, the cells are seeded into “capsule cups”. If the cell lines are non-adherent cell lines, then the cells are immobilized in a fibrin matrix. For all microphysiometer runs, modified low buffering DMEM containing 0.1% BSA is pumped across the cells at a rate of approximately 100 μL/min, during which time the pH of the microenvironment surrounding the sensor surface is maintained at a relatively constant value. The measurement of the acid output rate of the cells, termed the acidification rate, is made when the fluid flow is periodically halted to allow buildup of acidic metabolites in the chamber, resulting in an alteration in the pH of the fluid. The pH is measured in millivolts, and converted to milli-pH units. The changes in pH are expressed as changes in milli-pH units per minute following the linear, time-dependent buildup of H^+during intermittent periods of pump arrest followed by washout. […] Ligand induced, receptor-mediated increases in cell metabolic and Na^+—H^+membrane regulatory activity is seen as an increase in the acidification rate.
(§5) Small Kolmogorov-Smirnov distances supported the assumption of normality in all of the data sets, so within chamber-paired, one-tailed t-tests with a significance criterion of ρ=0.05 were used.

[2] = target: T1, human long isoform D2DA receptor; assay: external acidification rate (EAR) by microphysiometry, response to dopamine, D2DA receptor-transfected CHO cell system; conditions: peptide 1 μM; for MODULATORY EFFECT CHO: significance class of effect on EAR response to dopamine ≈1 μM; for MODULATORY EFFECT CHO / DIRECT EFFECT CHO: D2DA-transfected CHO cells; for DIRECT EFFECT CHO: significance class of effect on EAR
Method: as §2, §3, §4, §5

[3] = target: T2, human muscarinic M1 receptor (Homo sapiens, UniProt P11229); assay: EAR test system, response to carbachol, M1 receptor-transfected CHO-K1 cells; format: cell-based; conditions: for MODULATORY EFFECT: significance class of effect on EAR due to carbachol
T2 construct: expressed in transfected cells; host or cells: CHO-K1 cells; expression vector pcDNA3; calcium phosphate method; geneticin selection
T2 sequence (P11229 1-460): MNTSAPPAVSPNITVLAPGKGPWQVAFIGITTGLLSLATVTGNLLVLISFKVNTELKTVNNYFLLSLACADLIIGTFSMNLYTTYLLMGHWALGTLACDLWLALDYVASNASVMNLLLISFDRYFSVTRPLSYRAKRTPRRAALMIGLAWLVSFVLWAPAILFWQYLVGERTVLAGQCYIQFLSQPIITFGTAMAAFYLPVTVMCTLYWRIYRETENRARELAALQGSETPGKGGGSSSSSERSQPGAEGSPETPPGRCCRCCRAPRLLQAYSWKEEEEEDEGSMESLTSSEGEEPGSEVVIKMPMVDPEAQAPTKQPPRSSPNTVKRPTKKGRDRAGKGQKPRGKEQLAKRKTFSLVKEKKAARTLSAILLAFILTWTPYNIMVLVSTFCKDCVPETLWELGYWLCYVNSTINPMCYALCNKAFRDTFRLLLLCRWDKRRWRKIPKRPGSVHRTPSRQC
Method: (§1) Peptides derived from receptor protein systems other than the D2DA receptor were also tested for their effects on their respective receptors. For the human muscarinic M1 receptor, CHO cells were transfected with the muscarinic M1 receptor cDNA derived from a human cDNA library essentially as described by Buckley et al. (Mol. Pharmacol. 1989 35:469–476). Briefly, the coding region of the M1 receptor was obtained from a human cDNA library and cloned into the expression vector pcDNA3 (Invitrogen, San Diego, Calif.). CHO-K1 cells were transformed with the construct, using the calcium phosphate method. Stably expressing transformants were obtained in the presence of 250 μg/ml geneticin. Transformed cell lines expressing the human NGF receptor also were obtained. The effects of the peptides derived by the methods of the present invention on the activities of the corresponding receptors in the transformed cell lines were evaluated in the same manner as described above for the D2DA-targeted algorithmically derived peptides, using the EAR test system.

human NGF receptor = assay: EAR test system, transformed cell line expressing the NGF receptor, response to NGF; format: cell-based; conditions: for MODULATORY EFFECT: significance class of change in EAR response to NGF; for MODULATORY EFFECT / DIRECT EFFECT: NGF receptor cell line; for DIRECT EFFECT: significance class of change in EAR; for effect on EAR response to NGF: NGF receptor inhibition assay, PC-12 cells
Method: as §1
The hydrophobic wavelength of a peptide containing L-amino acids is the same as a peptide containing D-amino acids in which the sequence is inverted. Such “retro-inverso” peptides have been previously described (Chorev, M. and Goodman, M. (1995) Trends Biotechnol. 13:438–445), but their use as mode-matched binding peptides has never before been contemplated. A retro-inverso peptide containing D-amino acids and having the sequence […] was synthesized (SEQ ID NO:97). This sequence of this peptide is inverted from that of peptide of SEQ ID NO:27, used in the NGF receptor inhibition assay. […] The peptide of SEQ ID NO:97 was tested in the same assay as the L-amino acid, forward sequence peptide of SEQ ID NO: 27.

[4] = CHO cell system, dopamine ≈1 μM

T1 sequence (P14416 whole entry, canonical isoform): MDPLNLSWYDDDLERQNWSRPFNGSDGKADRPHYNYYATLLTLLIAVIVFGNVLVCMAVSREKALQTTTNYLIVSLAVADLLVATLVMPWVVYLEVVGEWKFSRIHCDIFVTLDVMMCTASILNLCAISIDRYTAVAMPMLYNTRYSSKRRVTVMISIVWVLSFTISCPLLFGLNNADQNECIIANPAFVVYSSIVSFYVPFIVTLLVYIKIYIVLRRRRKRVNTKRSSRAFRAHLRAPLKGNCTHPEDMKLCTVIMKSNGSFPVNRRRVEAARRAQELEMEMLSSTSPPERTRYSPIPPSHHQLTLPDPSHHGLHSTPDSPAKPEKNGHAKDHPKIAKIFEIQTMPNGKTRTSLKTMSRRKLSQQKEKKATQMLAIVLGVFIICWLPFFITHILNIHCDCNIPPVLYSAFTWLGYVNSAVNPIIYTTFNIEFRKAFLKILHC

MODULATORY EFFECT LtK [1]: *** (***ρ ≦ 0.001)
DIRECT EFFECT LtK [1]: *** (***ρ ≦ 0.001)
MODULATORY EFFECT CHO [2]: *** (***ρ ≦ 0.001)
DIRECT EFFECT CHO [2]: *** (***ρ ≦ 0.001)
Substance: 1 (SHQRWEYKGVNCIVY) [compound 1]

MODULATORY EFFECT LtK [1]: *** (***ρ ≦ 0.001)
Substance: 3 (ERNRKPYRPKNKYLL) [compound 3]

MODULATORY EFFECT LtK [1]: *** (***ρ ≦ 0.001)
Substance: 4 (ERNKLNYKNKNKYIL) [compound 4]

MODULATORY EFFECT LtK [1]: * (*0.01 < ρ ≦ 0.05)
MODULATORY EFFECT CHO [2]: *** (***ρ ≦ 0.001)
Substance: 5 (SHTAYHWMSCGKIVI) [compound 5]

MODULATORY EFFECT LtK [1]: *** (***ρ ≦ 0.001)
Substance: 7 (SHQAWRYKNVNCYVI) [compound 7]

DIRECT EFFECT LtK [1]: *** (***ρ ≦ 0.001)
DIRECT EFFECT CHO [2]: ** (**0.001 < ρ ≦ 0.01)
Substance: 8 (GETAFRYVNCNVYVYI) [compound 8]

Substance: 13 (FSFQCKSINYEALGY) [compound 13]
DIRECT EFFECT ([3]; significance class of effect on EAR): ** (** 0.001 < ρ ≦ 0.01)
MODULATORY EFFECT [3]: ** (** 0.001 < ρ ≦ 0.01)

Substance: 14 (FSFGVKSWQYHALGY) [compound 14]
MODULATORY EFFECT [3]: * (* 0.01 < ρ ≦ 0.05)

Substance: 15 (ITFTVKGLTLAAFTY) [compound 15]
MODULATORY EFFECT [3]: *** (*** ρ ≦ 0.001)

Substance: 16 (ISFNKCTWSFERYSL) [compound 16]
MODULATORY EFFECT [3]: * (* 0.01 < ρ ≦ 0.05)

Substance: 17 (FNLSVKQWNYRAYNL) [compound 17]
MODULATORY EFFECT [3]: ** (** 0.001 < ρ ≦ 0.01)

Substance: 23 (DLCRSARSDIEVTEY) [compound 23]
MODULATORY EFFECT (human NGF receptor): *** (*** ρ ≦ 0.001)
DIRECT EFFECT (human NGF receptor): ** (** 0.001 < ρ ≦ 0.01)

Substance: 24 (RFVASAATEIEVNRL) [compound 24]
MODULATORY EFFECT (human NGF receptor): ** (** 0.001 < ρ ≦ 0.01)

Substance: 25 (HYCASADPRIHKNAL) [compound 25]
MODULATORY EFFECT (human NGF receptor): *** (*** ρ ≦ 0.001)

Substance: 26 (DFVDGAAGRLHKGEY) [compound 26]
MODULATORY EFFECT (human NGF receptor): ** (** 0.001 < ρ ≦ 0.01)

Substance: 27 (DIKATEATDIEKGHL) [compound 27]
MODULATORY EFFECT (human NGF receptor): *** (*** ρ ≦ 0.001)

Substance: 28 (RFVDNDATDIEKGRI) [compound 28]
MODULATORY EFFECT (human NGF receptor): *** (*** ρ ≦ 0.001)
DIRECT EFFECT (human NGF receptor): * (* 0.01 < ρ ≦ 0.05)

Substance: 29 (RFVRGDRNHFDCGEL) [compound 29]
MODULATORY EFFECT (human NGF receptor): *** (*** ρ ≦ 0.001)
DIRECT EFFECT (human NGF receptor): * (* 0.01 < ρ ≦ 0.05)

Substance: 30 (HFVRNERTHFDVSAL) [compound 30]
MODULATORY EFFECT (human NGF receptor): * (* 0.01 < ρ ≦ 0.05)
DIRECT EFFECT (human NGF receptor): * (* 0.01 < ρ ≦ 0.05)

influence on dopamine-induced increment in total milli-pH units (EAR response to dopamine) [1]: statistically significant activation
Substance: ERNRKPLRPKNKYLI [E . . . PL]

influence on dopamine-induced increment in total milli-pH units (EAR response to dopamine) [1]: statistically significant activation
Substance: ERNRKPYRPKNKYLL [E . . . PY]

Substance: H-DIKATEATDIEKGHL-OH [SEQ ID NO:27]
effect on EAR response to NGF (human NGF receptor): significantly down-regulated

influence on dopamine-induced increment in total milli-pH units (EAR response to dopamine) [1]: significantly potentiated
ρ of one-tailed t-test paired within chamber, peptide influence on EAR response to dopamine [1]: 0.0009
influence on dopamine-induced increment in total milli-pH units (EAR response to dopamine) [2, 4]: significantly potentiated
ρ of one-tailed t-test paired within chamber, peptide influence on EAR response to dopamine [2, 4]: < 0.0001
Substance: H-SHQRWEYKGVNCIVY-OH [SEQ ID NO:1]
EAR dose response curves ([1]; LtK cells, dopamine 10^−8.5M to 10^−5.5M, peptide 10 nM to 3 μM): asymptotic sigmoidal kinetics, suggestive of positive cooperativity

influence on dopamine-induced increment in total milli-pH units (EAR response to dopamine) [1]: did not significantly potentiate
ρ of one-tailed t-test paired within chamber, peptide influence on EAR response to dopamine [1]: > 0.05
influence on dopamine-induced increment in total milli-pH units (EAR response to dopamine) [2, 4]: did not significantly potentiate
Substance: H-THQAFHYCNKQCLVI-OH (cysteine pairing not given here) [SEQ ID NO:2]

Substance: LHGKEIDTAETAKID [SEQ ID NO:97]
effect on EAR response to NGF (human NGF receptor): also down-regulated the EAR response of PC-12 cells to NGF, to an extent comparable
